# In PMC3227427:
# T1: Pyrococcus furiosus (Pfu) RNase P protein RPP30 (Pyrococcus furiosus)
# T1 sequence (Q8TZS0 1-214, looked up): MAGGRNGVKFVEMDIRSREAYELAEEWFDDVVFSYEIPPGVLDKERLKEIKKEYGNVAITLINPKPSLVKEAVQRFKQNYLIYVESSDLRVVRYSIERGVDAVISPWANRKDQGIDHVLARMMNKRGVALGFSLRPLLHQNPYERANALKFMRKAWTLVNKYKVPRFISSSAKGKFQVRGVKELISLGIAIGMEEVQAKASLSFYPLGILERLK
# B1: Pyrococcus furiosus (Pfu) RNase P protein Pop5, Cys72Ser variant (natural protein)
# chain: MSERPKTLPPTLRDKKRYIAFKVISENQFNKDEIKEAIWNACLRTLGELGTAKAKPWLIKFDETTQTGIIRSDRNHVYDVIFSLTLVSDINGNKAIIKVLGVSGTIKRLKRKFLSQFGWR
# Assays:
# [1] = target: T1, Pyrococcus furiosus (Pfu) RNase P protein RPP30 (Pyrococcus furiosus); assay: ITC; Pop5 (87.2 uM) titrated into RPP30 (4.95 uM); 55°C; 10 mM sodium acetate pH 5 with 130 mM KCl; one-site model; apparent
# [2] = target: T1, Pyrococcus furiosus (Pfu) RNase P protein RPP30 (Pyrococcus furiosus); assay: ITC; Pop5 (148 uM) titrated into RPP30 (14.8 uM); 55°C; no salt or 150 mM NaCl; smaller injections, higher Wiseman c value; two-site model
# [3] = target: T1, Pyrococcus furiosus (Pfu) RNase P protein RPP30 (Pyrococcus furiosus); assay: ITC; Pop5 (87.2 uM) titrated into RPP30 (9.89 uM); 55°C; 10 mM sodium acetate pH 5, no salt; one-site model; apparent
binder,measurement,setting,value
B1,Kd,[1],3.5 nM
same,stoichiometry N,[1],1
same,stoichiometry N,[2],1
same,Kd,[3],124 nM
same,stoichiometry N,[3],1
